Test results taken from PMC10504261, “Metabolism of plant-derived toxins from its insect host increases the success of the entomopathogenic fungus Beauveria bassiana” (The ISME Journal, 2023).

Legend:
[1] = system: C=CCN=C=S; assay: purified protein; details: 4 mM GSH (saturating); ITC 25-800 µM; n = 4
[2] = system: S=C=NCCc1ccccc1; assay: purified protein; details: 4 mM GSH (saturating); ITC 25-800 µM; n = 4
[3] = biological target: T1, BbGSTUre2p2 (Beauveria bassiana, UniProt J5JP22); assay: GSH conjugation, absorbance at […] nm, Michaelis-Menten fit; details: read-out: KM / μM; 4 mM GSH (saturating); ITC 25-800 µM; n = 4
T1 construct: gene BBA_04201
T1 sequence (J5JP22 entry or part of it): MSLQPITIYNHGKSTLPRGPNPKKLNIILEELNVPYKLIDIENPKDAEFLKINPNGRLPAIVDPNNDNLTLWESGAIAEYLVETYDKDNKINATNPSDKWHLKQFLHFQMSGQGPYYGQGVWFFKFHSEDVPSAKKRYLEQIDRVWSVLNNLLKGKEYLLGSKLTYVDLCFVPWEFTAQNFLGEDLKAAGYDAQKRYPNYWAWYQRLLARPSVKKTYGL

[4] = biological target: T2, BbGSTN21 (Beauveria bassiana, UniProt J5JKP3); assay: as above; details: read-out: KM / μM; 4 mM GSH (saturating); ITC 25-800 µM; n = 4
T2 construct: gene BBA_07410
T2 sequence (J5JKP3 entry or part of it): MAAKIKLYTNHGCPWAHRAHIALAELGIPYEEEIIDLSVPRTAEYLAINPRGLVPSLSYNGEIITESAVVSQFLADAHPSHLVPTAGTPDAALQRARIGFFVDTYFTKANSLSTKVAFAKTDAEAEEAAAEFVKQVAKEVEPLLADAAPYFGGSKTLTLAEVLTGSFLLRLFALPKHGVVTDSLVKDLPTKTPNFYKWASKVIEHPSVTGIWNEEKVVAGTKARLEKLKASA

[5] = biological target: T3, BbGSTe1 (Beauveria bassiana, UniProt J4UX82); assay: as above; details: read-out: KM / μM; 4 mM GSH (saturating); ITC 25-800 µM; n = 4
T3 construct: gene BBA_00672
T3 sequence (J4UX82 entry or part of it): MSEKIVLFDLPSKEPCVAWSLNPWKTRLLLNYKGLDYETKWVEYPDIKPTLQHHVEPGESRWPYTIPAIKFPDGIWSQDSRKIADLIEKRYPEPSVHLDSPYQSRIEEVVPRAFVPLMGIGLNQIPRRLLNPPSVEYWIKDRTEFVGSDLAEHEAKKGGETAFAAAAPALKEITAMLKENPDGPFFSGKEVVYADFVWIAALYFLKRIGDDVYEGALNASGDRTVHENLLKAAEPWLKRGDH

[6] = biological target: T4, BbGSTUre2p3 (Beauveria bassiana, UniProt J4KPJ4); assay: as above; details: read-out: KM / μM; 4 mM GSH (saturating); ITC 25-800 µM; n = 4
T4 construct: gene BBA_03339
T4 sequence (J4KPJ4 entry or part of it): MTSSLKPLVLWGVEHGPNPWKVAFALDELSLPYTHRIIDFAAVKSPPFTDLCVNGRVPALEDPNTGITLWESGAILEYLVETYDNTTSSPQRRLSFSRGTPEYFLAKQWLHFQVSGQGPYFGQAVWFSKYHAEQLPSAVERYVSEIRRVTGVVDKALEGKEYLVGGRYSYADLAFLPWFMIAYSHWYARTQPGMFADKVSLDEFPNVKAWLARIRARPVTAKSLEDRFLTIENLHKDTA

Compound | Km [1] | Vmax [1] | kcat [1] | kcat/Km [1] | Km [2] | Vmax [2] | kcat [2] | kcat/Km [2] | Km [3] | Km [4] | Km [5] | Km [6]
BbGSTN21 (Beauveria bassiana ARSEF 2860) | 448.48 ± 226.89 µM | 2.39 µmol/min/mg | 1 ± 0.24 s⁻¹ | 2230 ± 540 M⁻¹ s⁻¹ | 1191.89 ± 1464.92 µM | 0.97 µmol/min/mg | 0.41 ± 0.36 s⁻¹ | 340 ± 300 M⁻¹ s⁻¹ |  |  |  | 
BbGSTUre2p2 (Beauveria bassiana ARSEF 2860) | 487.23 ± 266.11 µM | 0.44 µmol/min/mg | 0.18 ± 0.05 s⁻¹ | 370 ± 100 M⁻¹ s⁻¹ | 223.06 ± 86.81 µM | 0.15 µmol/min/mg | 0.06 ± 0.01 s⁻¹ | 280 ± 50 M⁻¹ s⁻¹ |  |  |  | 
C[S+]([O-])CCCCN=C=S (stereo not drawn) [1a, 4MSOB-ITC] |  |  |  |  |  |  |  |  | 1210 ± 890 µM | 1130 ± 578 µM | 1220 ± 839 µM | 747 ± 338 µM
BbGSTUre2p3 (Beauveria bassiana ARSEF 2860) | 831.61 ± 572.57 µM | 0.59 µmol/min/mg | 0.27 ± 0.11 s⁻¹ | 320 ± 130 M⁻¹ s⁻¹ | 71.76 ± 38.91 µM | 0.08 µmol/min/mg | 0.04 ± 0.01 s⁻¹ | 490 ± 80 M⁻¹ s⁻¹ |  |  |  | 
BbGSTe1 (Beauveria bassiana ARSEF 2860) | 312.75 ± 100.06 µM | 0.41 µmol/min/mg | 0.19 ± 0.02 s⁻¹ | 590 ± 80 M⁻¹ s⁻¹ | 860.76 ± 561.56 µM | 1.9 µmol/min/mg | 0.88 ± 0.35 s⁻¹ | 1020 ± 410 M⁻¹ s⁻¹ |  |  |  | 
